Data on one substance can be found in patent publication US20060141569A1, “Compositions and methods for the assay of G-protein coupled receptors and their ligands” (priority 2004, published 2006).

The target in the assay is human CRF1 receptor (human) (UniProt P34998). Briefly: cell-based or functional assay.
human CRF1 receptor (human), sequence (P34998 24-415): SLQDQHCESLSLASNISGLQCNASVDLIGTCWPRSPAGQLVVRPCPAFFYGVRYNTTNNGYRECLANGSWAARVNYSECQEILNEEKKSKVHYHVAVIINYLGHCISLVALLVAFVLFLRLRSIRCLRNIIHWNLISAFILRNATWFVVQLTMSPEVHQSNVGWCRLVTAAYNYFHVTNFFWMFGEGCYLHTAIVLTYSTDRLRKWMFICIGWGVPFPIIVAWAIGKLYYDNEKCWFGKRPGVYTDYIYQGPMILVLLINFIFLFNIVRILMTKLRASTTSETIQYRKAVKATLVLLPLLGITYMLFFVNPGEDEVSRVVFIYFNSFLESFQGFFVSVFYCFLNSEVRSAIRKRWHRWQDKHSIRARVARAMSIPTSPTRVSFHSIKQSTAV

On to “sauvagine (from UniProt P01144 1-40) (peptide)”, for which the FLIPR Ca^2+ response EC50, CHEM-1 cells turned out to be 12 nM; the FLIPR EC50, CRF1/CHEM-1 cells was determined as 10 nM; the cAMP response EC50, CHEM-1 cells worked out at 4.9 nM; the cAMP response EC50, CHO cells was 8.4 nM.
